According to patent US20230405078A1, “DETECTION AND TREATMENT OF INTESTINAL FIBROSIS” (THE REGENTS OF THE UNIVERSITY OF CALIFORNIA, priority 2020, published 2023):

How the values were obtained:
[1] = system: Human colonic CCD-18Co fibroblasts; experiment: TGF-β1-induced fibrogenesis in CCD-18Co fibroblasts; type: cell-based; conditions: TGF-β1-treated CCD-18Co fibroblasts; elafin 1 μg/ml
Experimental: Cleveland Clinic IRB directives (IRB #17-1167). Primary non-IBD patient-derived colonic fibroblasts (H6231) were purchased from Cell Biologics. All primary colonic fibroblasts were cultured in fibroblast medium (M2267, Cell Biologics). Human colonic CCD-18Co fibroblasts (ATCC) were cultured in minimal essential medium Eagle's medium (MEM) containing 10% fetal bovine serum and 1% penicillin-streptomycin 6, 20. All fibroblasts were grown to 80% confluence and then switched to serum-free media overnight for experiments.
For activation of protease-activated receptors (PARs), fibroblasts were pretreated with 0.8% DMSO, 10 μM PAR1 agonist TRAP-6 (HY-P0078, MCE), 10 μM PAR2 agonist SLIGKV-NH2 (Protease-Activated Receptor-2, amide, HY-P0283, MCE), or 0.4 μg/ml PAR2-activating protease recombinant cathepsin S (1183-CY-010, R&D Systems) for 30 minutes. For miR205-5p activation, fibroblasts were transfected with (30 picomoles/well) either control (YM00479902) or miR205-5p miRCURY LNA mimic (YM00472340) from Qiagen via Lipofectamine 3000 transfection reagent (L3000001, ThermoFisher) in Opti-MEM (#31985062, ThermoFisher) overnight. For miR205-5p inhibition, fibroblasts were pretreated with 50nM either control (Y100199006) or miR205-5p power inhibitors (Y104101508-DDA) from Qiagen overnight. […]

ERK1/2 phosphorylation = experiment: Phospho-ERK1/2 ELISA in CCD-18Co fibroblasts; type: cell-based, human; conditions: elafin 1 μg/ml, 2 hours
Experimental: FIG. 27. Elafin inhibited ERK1/2 phosphorylation in intestinal fibroblasts via PAR2. (A) Serum starved CCD-18Co and primary stricturing CD patient-derived colonic fibroblasts were transiently transfected with either control siRNA or ZEB1 siRNA overnight, followed by treatment with 10 ng/ml TGF-β1 or 100 μg/ml stricturing CD patient-derived serum exosomes (CDSE) for 24 hours. (B) CCD-18Co fibroblasts were treated with DMSO, PAR1 inhibitor (SCH79797), or PAR2 inhibitor (GB88) for 2 hours. GB88 inhibited ERK1/2 phosphorylation. (C) CCD-18Co fibroblasts were pretreated with DMSO, PAR1 agonist, or PAR2 agonists for 30 minutes, followed by TGF-β1 10 ng/ml. Two hours later, elafin (1 μg/ml) and incubated for 2 hours. Elafin inhibited ERK1/2 phosphorylation, which was reversed by PAR2 agonist. […] Phospho-ERK1/2, ProCOL1A1, COL1A2, and ZEB1 protein were determined by ELISA. miR205-5p expression was determined by real-time RT-PCR. […]
FIG. 28. […] (D) Quantification of cathepsin S signals (B7-8) and control signals (A1-2 and E1-2) on the protease array using Bio-Rad Image Lab Software. […] Phospho-ERK1/2 was determined by ELISA. […] ProCOL1A1 and COL1A2 were determined by ELISA. […]

B1: Cathepsin S: PAR2-activating protease recombinant cathepsin S (protein)
chain: QLHKDPTLDHHWHLWKKTYGKQYKEKNEEAVRRLIWEKNLKFVMLHNLEHSMGMHSYDLGMNHLGDMTSEEVMSLMSSLRVPSQWQRNITYKSNPNRILPDSVDWREKGCVTEVKYQGSCGACWAFSAVGALEAQLKLKTGKLVSLSAQNLVDCSTEKYGNKGCNGGFMTTAFQYIIDNKGIDSDASYPYKAMDQKCQYDSKYRAATCSKYTELPYGREDVLKEAVANKGPVSVGVDARHPSFFLYRSGVYYEPSCTQNVNHGVLVVGYGDLNGKEYWLVKNSWGHNFGEEGYIRMARNKGNHCGIASFPSYPEI
For B1, the “effect on elafin-mediated inhibition of collagen expression” value [1] was “reversed” and the “effect on elafin-mediated inhibition of ERK1/2 phosphorylation” value (ERK1/2 phosphorylation) was “reversed”.
